Values quoted from earlier work as cited in article PMC10552185.

Target: RegA (Dictyostelium discoideum) (UniProt Q23917)
Sequence (Q23917 whole entry): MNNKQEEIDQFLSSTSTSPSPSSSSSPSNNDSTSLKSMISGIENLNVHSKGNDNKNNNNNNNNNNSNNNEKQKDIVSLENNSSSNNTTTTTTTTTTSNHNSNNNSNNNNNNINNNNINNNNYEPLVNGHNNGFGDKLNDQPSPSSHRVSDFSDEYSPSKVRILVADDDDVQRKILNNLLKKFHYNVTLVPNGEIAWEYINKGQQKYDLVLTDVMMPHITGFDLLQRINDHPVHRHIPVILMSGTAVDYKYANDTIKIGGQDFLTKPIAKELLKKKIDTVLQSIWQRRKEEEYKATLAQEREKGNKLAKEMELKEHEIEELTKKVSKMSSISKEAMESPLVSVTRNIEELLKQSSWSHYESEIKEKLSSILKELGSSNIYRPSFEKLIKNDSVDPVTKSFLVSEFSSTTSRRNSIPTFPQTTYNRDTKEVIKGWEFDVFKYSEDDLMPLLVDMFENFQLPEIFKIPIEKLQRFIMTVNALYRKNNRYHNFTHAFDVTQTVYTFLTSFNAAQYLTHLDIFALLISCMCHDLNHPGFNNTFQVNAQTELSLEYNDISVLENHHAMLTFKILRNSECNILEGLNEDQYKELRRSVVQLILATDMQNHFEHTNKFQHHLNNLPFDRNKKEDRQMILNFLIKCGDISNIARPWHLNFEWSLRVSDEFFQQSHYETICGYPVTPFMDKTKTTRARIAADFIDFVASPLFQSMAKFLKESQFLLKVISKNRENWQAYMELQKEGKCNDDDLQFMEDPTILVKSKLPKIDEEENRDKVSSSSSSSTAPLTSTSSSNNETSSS

Kd: 100 nM
Substance: PKA RIα (from UniProt P10644)
